# Data reported in patent publication JP2019041668A.
# What was measured:
# [1] = biological target: グリセルアルデヒド由来AGEs含有マウス血清アルブミン (Glycer-AGEs-MSA) (mouse) (UniProt P07724); assay: SPR, Biacore T200; Glycer-AGEs-MSA amine-coupled on CM5 chip, antibody 0.001-100 nM as analyte
# [2] = biological target: グリセルアルデヒド由来AGEs含有マウス血清アルブミン (Glycer-AGEs-MSA) (mouse) (UniProt P07724); assay: SPR, Biacore T200; Glycer-AGEs-MSA amine-coupled on CM5 chip, antibody 0.8-800 nM as analyte
# Sequence of UniProt P07724 (P07724 25-608, form in doubt): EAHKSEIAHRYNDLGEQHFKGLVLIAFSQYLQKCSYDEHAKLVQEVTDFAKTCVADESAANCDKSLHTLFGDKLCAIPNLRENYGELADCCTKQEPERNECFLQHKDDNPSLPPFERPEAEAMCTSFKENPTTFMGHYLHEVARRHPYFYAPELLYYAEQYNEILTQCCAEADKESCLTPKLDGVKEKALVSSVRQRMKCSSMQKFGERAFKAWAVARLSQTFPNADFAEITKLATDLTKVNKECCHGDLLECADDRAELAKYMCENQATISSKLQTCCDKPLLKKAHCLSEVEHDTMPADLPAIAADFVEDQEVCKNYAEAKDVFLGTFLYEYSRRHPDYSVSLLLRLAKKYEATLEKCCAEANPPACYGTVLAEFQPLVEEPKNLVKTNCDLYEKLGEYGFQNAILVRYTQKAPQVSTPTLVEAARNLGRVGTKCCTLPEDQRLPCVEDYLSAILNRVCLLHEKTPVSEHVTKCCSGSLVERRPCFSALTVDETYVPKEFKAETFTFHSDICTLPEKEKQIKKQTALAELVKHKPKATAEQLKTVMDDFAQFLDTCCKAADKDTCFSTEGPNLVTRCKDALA
Kd [1] [nM],Kd [2] [nM],Binder
47.6,–,"モノクローナル抗体 6B3 (antibody, V domains shown) VH: VKLQQSGAELVKPGASVKLSCKASGYTFTSYWMHWVKQRPGQGLEWIGEINPSNGRSNYKEKFKFKATLTVDKSSRTAYMQLSSLTSEDSAVYYCARGASWFAYWGQGTTVTVSS VL: QIVLTQSPAIMSASPGEKVTISCSASSSVSYMYWYQQKPGSSPKPWIYRTSNLASGVPARFSGSGSGTSYSLTISSMEAEDAATYYCQQYHSYPRTFGGGTKLEIKR"
–,376,"モノクローナル抗体 11G4 (antibody, V domains shown) VH: VKLQESGAELVKPGTSVKLSCKASGYTFTSYWMHWVKQRPGQGLEWIGEINPSNGRSNYKEKFKFKATLTVDKSSRTAYMQLSRLTSEDSAVYYCARGASWFAYWGQGTTVTVSS VL: ENVLTQSPTIMAASLGQKVTMTCSATSNVSSSYLHWYQQKSGASPKPLIHRTSDLASGVPTRFSGSGSGTSYSLTITSVEAEDDATYYCQQWSGYPFTFGAGTKLELKR"
